In US20180064666A1 (BETH ISRAEL DEACONESS MEDICAL CENTER, published 2018):

Legend:
[1] = target: T1, Erk1 (endogenous, member of Erk1/2) (human (endogenous in human cell lines), UniProt P27361 2-379); assay: reciprocal co-IP from HMLE lysates, western blot (FIG. 45C)
T1 construct: one entry is written for each member; also called total Erk1/2

[2] = target: T2, Erk2 (endogenous, member of Erk1/2) (human (endogenous in human cell lines), UniProt P28482 2-360); assay: as above
T2 construct: one entry is written for each member; also called total Erk1/2
T2 sequence (P28482 2-360 limits assumed): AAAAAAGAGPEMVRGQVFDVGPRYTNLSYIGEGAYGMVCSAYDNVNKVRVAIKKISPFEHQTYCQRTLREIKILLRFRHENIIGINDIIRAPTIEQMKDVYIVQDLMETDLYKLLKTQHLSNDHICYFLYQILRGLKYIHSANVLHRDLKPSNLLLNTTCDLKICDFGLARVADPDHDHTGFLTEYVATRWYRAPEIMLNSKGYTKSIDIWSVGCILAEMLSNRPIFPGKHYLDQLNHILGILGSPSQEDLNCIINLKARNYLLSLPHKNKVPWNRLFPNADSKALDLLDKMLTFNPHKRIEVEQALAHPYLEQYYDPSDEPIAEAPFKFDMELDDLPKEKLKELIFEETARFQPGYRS

[3] = target: T1, Erk1 (endogenous, member of Erk1/2); assay: co-IP from HEK293 cells (FIG. 45D)
[4] = target: T2, Erk2 (endogenous, member of Erk1/2); assay: co-IP from HEK293 cells (FIG. 45D)
[5] = target: p-Erk1 (phosphorylated Erk1, member of p-Erk1/2) (human (endogenous in human cell lines), UniProt P27361 2-379, phosphorylated (p-Erk1/2, induced by constitutively active MEK1); sites not given); assay: co-IP from HEK293 cells (FIG. 45D)
Sequence of p-Erk1 (phosphorylated Erk1, member of p-Erk1/2) (P27361 2-379 limits assumed): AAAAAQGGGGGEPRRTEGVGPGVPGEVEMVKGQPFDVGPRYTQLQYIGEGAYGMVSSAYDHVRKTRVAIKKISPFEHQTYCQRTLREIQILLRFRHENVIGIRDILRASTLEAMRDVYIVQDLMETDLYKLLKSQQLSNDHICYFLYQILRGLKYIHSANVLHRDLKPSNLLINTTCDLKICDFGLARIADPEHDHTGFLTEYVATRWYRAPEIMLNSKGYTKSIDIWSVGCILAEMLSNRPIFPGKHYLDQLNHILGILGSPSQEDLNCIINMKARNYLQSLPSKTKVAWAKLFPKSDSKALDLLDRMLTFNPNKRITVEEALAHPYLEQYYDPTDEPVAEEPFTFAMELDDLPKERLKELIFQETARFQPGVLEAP

[6] = target: p-Erk2 (phosphorylated Erk2, member of p-Erk1/2) (human (endogenous in human cell lines), UniProt P28482 2-360, phosphorylated (p-Erk1/2, induced by constitutively active MEK1); sites not given); assay: co-IP from HEK293 cells (FIG. 45D)
Sequence of p-Erk2 (phosphorylated Erk2, member of p-Erk1/2) (P28482 2-360 limits assumed): as the sequence (P28482 2-360 limits assumed) above

T1 sequence (P27361 2-379 limits assumed): as the sequence (P27361 2-379 limits assumed) above

binding result [1] | binding result [2] | binding result [3] | binding result [4] | binding result [5] | binding result [6] | Binder
binds | binds | – | – | – | – | endogenous Rab2A (enzyme, human (endogenous in human HMLE cells), UniProt P61019 2-212, looked up) AYAYLFKYIIIGDTGVGKSCLLLQFTDKRFQPVHDLTIGVEFGARMITIDGKQIKLQIWDTAGQESFRSITRSYYRGAAGALLVYDITRRDTFNHLTTWLEDARQHSNSNMVIMLIGNKSDLESRREVKKEEGEAFAREHGLIFMETSAKTASNVEEAFINTAKEIYEKIQEGVFDINNEANGIKIGPQHAATNATHAGNQGGQQAGGGCC
– | – | binds | binds | binds | binds | Flag-Rab2A (enzyme, UniProt P61019 1-212, looked up, not shown: small tags and cut ends, also called wild-type Rab2A) MAYAYLFKYIIIGDTGVGKSCLLLQFTDKRFQPVHDLTIGVEFGARMITIDGKQIKLQIWDTAGQESFRSITRSYYRGAAGALLVYDITRRDTFNHLTTWLEDARQHSNSNMVIMLIGNKSDLESRREVKKEEGEAFAREHGLIFMETSAKTASNVEEAFINTAKEIYEKIQEGVFDINNEANGIKIGPQHAATNATHAGNQGGQQAGGGCC
